Consider three substances from patent US20070259805A1.

The target of this test is MITF-M expressed in HEK293 cells from the pCI mammalian expression vector (human) (UniProt O75030). In words: cell-based or functional assay.
Chain of UniProt O75030 (O75030 other isoform, or with tags, fused parts or gaps limits assumed): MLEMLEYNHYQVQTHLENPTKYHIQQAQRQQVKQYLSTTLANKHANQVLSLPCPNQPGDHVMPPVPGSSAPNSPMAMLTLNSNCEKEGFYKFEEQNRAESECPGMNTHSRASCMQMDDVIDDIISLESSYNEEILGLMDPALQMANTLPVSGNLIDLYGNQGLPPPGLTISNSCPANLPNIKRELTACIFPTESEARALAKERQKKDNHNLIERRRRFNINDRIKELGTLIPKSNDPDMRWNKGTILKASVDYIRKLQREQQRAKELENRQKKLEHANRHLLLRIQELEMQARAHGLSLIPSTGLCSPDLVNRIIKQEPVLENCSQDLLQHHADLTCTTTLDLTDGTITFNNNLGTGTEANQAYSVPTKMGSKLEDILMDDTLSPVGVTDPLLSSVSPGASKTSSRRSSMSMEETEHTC
For the substance “CLOCK expressed in HEK293 cells from the pCI mammalian cell expression vector (from UniProt O15516 1-846)”, the luciferase activity (firefly/renilla) in a reporter assay using BCL2 gene promoter, HEK293 cells, against cells transfected only with the MITF-M gene expression plasmid was found to be 1.5 fold. “carboxy-terminal FLAG-tagged HLF protein expressed in HEK293 cells from pCI (from UniProt Q16534 1-295)”: the luciferase activity (firefly/renilla) in a reporter assay using BCL2 gene promoter, HEK293 cells, against cells transfected only with the MITF-M gene expression plasmid was 1.8 fold.

Take “carboxy-terminal FLAG-tagged ELK4 protein expressed in HEK293 cells from pCI (from UniProt P28324 1-372)”: the luciferase activity (firefly/renilla) in a reporter assay using BCL2 gene promoter, HEK293 cells, against cells transfected only with the MITF-M gene expression plasmid came out at 1.4 fold.
